Assay results taken from US20130345294.

Molecular target: GAVP(N56K+C71V) N56K,C71V (VIVID numbering) (artificial) (UniProt Q04206)
Assay: cell_activity

Sequence of UniProt Q04206 (Q04206 whole entry, stated change not applied): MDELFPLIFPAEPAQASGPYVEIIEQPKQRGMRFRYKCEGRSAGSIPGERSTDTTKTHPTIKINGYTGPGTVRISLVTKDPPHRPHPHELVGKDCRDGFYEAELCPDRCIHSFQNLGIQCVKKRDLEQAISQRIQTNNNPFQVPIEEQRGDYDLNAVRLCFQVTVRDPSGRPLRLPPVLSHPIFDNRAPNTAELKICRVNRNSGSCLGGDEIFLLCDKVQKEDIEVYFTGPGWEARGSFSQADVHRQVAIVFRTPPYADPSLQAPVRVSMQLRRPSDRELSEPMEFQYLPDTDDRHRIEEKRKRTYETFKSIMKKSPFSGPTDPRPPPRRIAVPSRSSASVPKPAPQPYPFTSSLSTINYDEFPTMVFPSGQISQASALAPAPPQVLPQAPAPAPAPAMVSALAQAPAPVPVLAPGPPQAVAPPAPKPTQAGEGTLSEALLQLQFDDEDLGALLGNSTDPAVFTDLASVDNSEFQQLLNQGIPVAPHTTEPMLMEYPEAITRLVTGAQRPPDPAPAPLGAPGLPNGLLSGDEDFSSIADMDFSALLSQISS

Substance: 5xUASG-TATA-Fluc
- activity (HEK293 light/dark induction, also active in NIH3T3 and COS-7): 200 fold

Substance: TCTAGACGGAGTACTGTCCTCCGAGCGGAGTACTGTCCTCCGACTCGAGCGGAGTACTGTCCTCCGATCGGAGTACTGTCCTCCGCGAATTCCGGAGTACTGTCCTCCGAAGACGCTAGCGGGGGGCTATAAAAGGGGGTGGGGGCGTTCGTCCTCACTCTAGATCTGCGATCTAAGTAAGCTTGGCCACCATGGGAGTCAAAGTTCTGTTTGCCCTGATCTGCATCGCTGTGGCCGAGGCCAAGCCCACCGAGAACAACGAAGACTTCAACATCGTGGCCGTGGCCAGCAACTTCGCGACCACGGATCTCGATGCTGACCGCGGGAAGTTGCCCGGCAAGAAGCTGCCGCTGGAGGTGCTCAAAGAGATGGAAGCCAATGCCCGGAAAGCTGGCTGCACCAGGGGCTGTCTGATCTGCCTGTCCCACATCAAGTGCACGCCCAAGATGAAGAAGTTCATCCCAGGACGCTGCCACACCTACGAAGGCGACAAAGAGTCCGCACAGGGCGGCATAGGCGAGGCGATCGTCGACATTCCTGAGATTCCTGGGTTCAAGGACTTGGAGCCCATGGAGCAGTTCATCGCACAGGTCGATCTGTGTGTGGACTGCACAACTGGCTGCCTCAAAGGGCTTGCCAACGTGCAGTGTTCTGACCTGCTCAAGAAGTGGCTGCCGCAACGCTGTGCGACCTTTGCCAGCAAGATCCAGGGCCAGGTGGACAAGATCAAGGGGGCCGGTGGTGACTAA (double strand) [5xUASG-TATA-Gluc]
- activity (HEK293, Gluc after 12 h light, 30-fold after 3 h): 100 fold
